Assay results as given in US12295987B2, “Method of using a GIP/GLP1 co-agonist for diabetes” (Eli Lilly and Company, priority 2018, dated 2025).

Molecular target: T1, human gastric inhibitory peptide receptor (hGIPR) (Homo sapiens, UniProt P48546)
T1 construct: expressed in transfected cells; host or cells: HEK293
T1 sequence (P48546 22-466): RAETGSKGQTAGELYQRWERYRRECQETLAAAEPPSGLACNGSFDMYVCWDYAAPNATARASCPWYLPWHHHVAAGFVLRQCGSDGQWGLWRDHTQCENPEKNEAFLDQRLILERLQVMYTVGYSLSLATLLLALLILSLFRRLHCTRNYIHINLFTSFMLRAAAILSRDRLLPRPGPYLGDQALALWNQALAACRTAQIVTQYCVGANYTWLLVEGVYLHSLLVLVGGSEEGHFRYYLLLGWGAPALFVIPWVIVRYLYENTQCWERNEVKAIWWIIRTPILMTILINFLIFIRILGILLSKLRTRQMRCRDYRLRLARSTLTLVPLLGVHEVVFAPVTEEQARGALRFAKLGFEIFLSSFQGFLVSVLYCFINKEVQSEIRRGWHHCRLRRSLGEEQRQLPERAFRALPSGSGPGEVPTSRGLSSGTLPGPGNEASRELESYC
Assay: cAMP pharmacological functional assay in presence of 0.1% casein, hGIPR
Assay type: cell-based
Settings: ratio of hGIPR to hGLP1R cAMP EC50 ratios

Substance | [hGIPR/hGLP1R] EC50 Ratio
Y-Aib-EGT-αMeF-TSDLSILLDKK((2-[2-(2-Amino-ethoxy)-ethoxy]-acetyl)2-(γGlu)-CO—(CH2)18—CO2H)AQ-Aib-AFIEYLIEGGPSSGAPPPS-NH2 (YXEGTXTSDLSILLDKKAQXAFIEYLIEGGPSSGAPPPS; Aib, αMeF; acylated lysine C20 diacid; amide; (2)..(2) Xaa at position 2 is Aib; (6)..(6) Xaa at position 6 is alpha-methyl-Phe; MOD_RES (17)..(17) Lys at position 17 is chemically modified by conjugation of the epsilon-amino group of the Lys side chain with (2-[2-(2-amino-ethoxy)-ethoxy]-acetyl)2-(gamma-Glu)-CO-(CH2)18- CO2H; (20)..(20) Xaa at position 20 is Aib; MOD_RES (39)..(39) Ser at position 39 is amidated) [Peptide 129] | 3.46
Y-Aib-EGT-αMeF-TSDYSI-Aib-LDEK((2-[2-(2-Amino-ethoxy)-ethoxy]-acetyl)2-(γGlu)-CO—(CH2)18—CO2H)AQ-Aib-EFI-(D-Glu)-YLIEGGPSSGAPPPS-NH2 (YXEGTXTSDYSIXLDEKAQXEFIXYLIEGGPSSGAPPPS; Aib, αMeF, D-Glu; lipidated K; amide; (2)..(2) Xaa at position 2 is Aib; (6)..(6) Xaa at position 6 is alpha-methyl-Phe; (13)..(13) Xaa at position 13 is Aib; MOD_RES (17)..(17) Lys at position 17 is chemically modified by conjugation of the epsilon-amino group of the Lys side chain with (2-[2-(2-amino-ethoxy)-ethoxy]-acetyl)2-(gamma-Glu)-CO-(CH2)18- CO2H; (20)..(20) Xaa at position 20 is Aib; (24)..(24) Xaa at position 24 is D-Glu; M) [Peptide 225] | 3.80
Y-Aib-EGT-αMeF-TSDYSI-αMeL-LDEK((2-[2-(2-Amino-ethoxy)-ethoxy]-acetyl)2-(γGlu)-CO—(CH2)16—CO2H)AQ-Aib-EFI-(D-Glu)-YLIEGGPSSGAPPPS-NH2 (YXEGTXTSDYSIXLDEKAQXEFIXYLIEGGPSSGAPPPS; Aib, αMeF, αMeL, D-Glu; lipidated K; amide; (2)..(2) Xaa at position 2 is Aib; (6)..(6) Xaa at position 6 is alpha-methyl-Phe; (13)..(13) Xaa at position 13 is alpha-methyl-Leu; MOD_RES (17)..(17) Lys at position 17 is chemically modified by conjugation of the epsilon-amino group of the Lys side chain with (2-[2-(2-amino-ethoxy)-ethoxy]-acetyl)2-(gamma-Glu)-CO-(CH2)16- CO2H; (20)..(20) Xaa at position 20 is Aib; (24)..(24) Xaa at position 2) [Peptide 213] | 5.58
Y-Aib-EGT-αMeF-TSDYSI-αMeL-LDEK((2-[2-(2-Amino-ethoxy)-ethoxy]-acetyl)2-(γGlu)-CO—(CH2)18—CO2H)AQ-Aib-AFIEYLIEGGPSSGAPPPS-NH2 (YXEGTXTSDYSIXLDEKAQXAFIEYLIEGGPSSGAPPPS; Aib, αMeF, αMeL; acylated lysine C20 diacid; amide; (2)..(2) Xaa at position 2 is Aib; (6)..(6) Xaa at position 6 is alpha-methyl-Phe; (13)..(13) Xaa at position 13 is alpha-methyl-Leu; MOD_RES (17)..(17) Lys at position 17 is chemically modified by conjugation of the epsilon-amino group of the Lys side chain with (2-[2-(2-amino-ethoxy)-ethoxy]-acetyl)2-(gamma-Glu)-CO-(CH2)18- CO2H; (20)..(20) Xaa at position 20 is Aib; MOD_RES (39)..(39) Ser at po) [Peptide 115] | 2.49
Y-Aib-EGT-αMeF-TSDYSI-αMeL-LDEK((2-[2-(2-Amino-ethoxy)-ethoxy]-acetyl)2-(γGlu)-CO—(CH2)18—CO2H)AQ-Aib-EFI-(D-Glu)-YLIEGGPSSGAPPPS-NH2 (YXEGTXTSDYSIXLDEKAQXEFIXYLIEGGPSSGAPPPS; Aib, αMeF, αMeL, D-Glu; lipidated K; amide; (2)..(2) Xaa at position 2 is Aib; (6)..(6) Xaa at position 6 is alpha-methyl-Phe; (13)..(13) Xaa at position 13 is alpha-methyl-Leu; MOD_RES (17)..(17) Lys at position 17 is chemically modified by conjugation of the epsilon-amino group of the Lys side chain with (2-[2-(2-amino-ethoxy)-ethoxy]-acetyl)2-(gamma-Glu)-CO-(CH2)18- CO2H; (20)..(20) Xaa at position 20 is Aib; (24)..(24) Xaa at position 2) [Peptide 227] | 4.42
Y-Aib-EGT-αMeF-TSDYSI-αMeL-LDKK((2-[2-(2-Amino-ethoxy)-ethoxy]-acetyl)2-(γGlu)2-CO—(CH2)18—CO2H)AQ-Aib-AFIEYLIEGGPSSGAPPPS-NH2 (YXEGTXTSDYSIXLDKKAQXAFIEYLIEGGPSSGAPPPS; Aib, αMeF, αMeL; acylated lysine C20 diacid; amide; (2)..(2) Xaa at position 2 is Aib; (6)..(6) Xaa at position 6 is alpha-methyl-Phe; (13)..(13) Xaa at position 13 is alpha-methyl-Leu; MOD_RES (17)..(17) Lys at position 17 is chemically modified by conjugation of the epsilon-amino group of the Lys side chain with (2-[2-(2-amino-ethoxy)-ethoxy]-acetyl)2-(gamma-Glu)2-CO-(CH2)18- CO2H; (20)..(20) Xaa at position 20 is Aib; MOD_RES (39)..(39) Ser at p) [Peptide 125] | 2.89
Y-Aib-EGT-αMeF-TSDYSI-αMeL-LDKK((2-[2-(2-Amino-ethoxy)-ethoxy]-acetyl)2-(γGlu)-CO—(CH2)18—CO2H)AQ-Aib-AFIEYLIEAGPSSGAPPPS-NH2 (YXEGTXTSDYSIXLDKKAQXAFIEYLIEAGPSSGAPPPS; Aib, αMeF, αMeL; acylated lysine C20 diacid; amide; (2)..(2) Xaa at position 2 is Aib; (6)..(6) Xaa at position 6 is alpha-methyl-Phe; (13)..(13) Xaa at position 13 is alpha-methyl-Leu; MOD_RES (17)..(17) Lys at position 17 is chemically modified by conjugation of the epsilon-amino group of the Lys side chain with (2-[2-(2-amino-ethoxy)-ethoxy]-acetyl)2-(gamma-Glu)-CO-(CH2)18- CO2H; (20)..(20) Xaa at position 20 is Aib; MOD_RES (39)..(39) Ser at po) [Peptide 126] | 2.91
